Several values for one entry are separate records, joined by “and”; a condition that tells them apart may be missing. Equal entries are not always repeated.
Key:
[1] = molecular target: the molecule itself; assay: SEC; Superdex-200 HR 10/30, room temperature, 2.4 mg/ml recombinant ICD-1, calibrated with molecular-mass standards
[2] = molecular target: the molecule itself; assay: SEC; Superose 6 10/300 GL, room temperature, concentrated ICD-2 (~400 ug; 1.06 mg/ml), high salt (1 M NaCl)
[3] = molecular target: the molecule itself; assay: SEC; Superose 6 10/300 GL, room temperature, concentrated ICD-2 (~400 ug; 1.06 mg/ml), low salt (100 mM NaCl)
SEC = molecular target: the molecule itself; assay: SEC

Row | Protein | stoichiometry N [1] | stoichiometry N [2] | stoichiometry N [3] | stoichiometry N (SEC)
1 | Mycobacterium tuberculosis isocitrate dehydrogenase ICD-1 (Rv3339c) (enzyme, also called M.tb ICD-1; M. tb ICD-1) MSNAPKIKVSGPVVELDGDEMTRVIWKLIKDMLILPYLDIRLDYYDLGIEHRDATDDQVTIDAAYAIKKHGVGVKCATITPDEARVEEFNLKKMWLSPNGTIRNILGGTIFREPIVISNVPRLVPGWTKPIVIGRHAFGDQYRATNFKVDQPGTVTLTFTPADGSAPIVHEMVSIPEDGGVVLGMYNFKESIRDFARASFSYGLNAKWPVYLSTKNTILKAYDGMFKDEFERVYEEEFKAQFEAAGLTYEHRLIDDMVAACLKWEGGYVWACKNYDGDVQSDTVAQGYGSLGLMTSVLMTADGKTVEAEAAHGTVTRHYRQYQAGKPTSTNPIASIFAWTRGLQHRGKLDGTPEVIDFAHKLESVVIATVESGKMTKDLAILIGPEQDWLNSEEFLDAIADNLEKELAN | 4 and 2 | – | – | –
2 | Mycobacterium tuberculosis isocitrate dehydrogenase ICD-2 (Rv0066c) (enzyme, also called M.tb ICD-2; M. tb ICD-2) MSAEQPTIIYTLTDEAPLLATYAFLPIVRAFAEPAGIKIEASDISVAARILAEFPDYLTEEQRVPDNLAELGRLTQLPDTNIIKLPNISASVPQLVAAIKELQDKGYAVPDYPADPKTDQEKAIKERYARCLGSAVNPVLRQGNSDRRAPKAVKEYARKHPHSMGEWSMASRTHVAHMRHGDFYAGEKSMTLDRARNVRMELLAKSGKTIVLKPEVPLDDGDVIDSMFMSKKALCDFYEEQMQDAFETGVMFSLHVKATMMKVSHPIVFGHAVRIFYKDAFAKHQELFDDLGVNVNNGLSDLYSKIESLPASQRDEIIEDLHRCHEHRPELAMVDSARGISNFHSPSDVIVDASMPAMIRAGGKMYGADGKLKDTKAVNPESTFSRIYQEIINFCKTNGQFDPTTMGTVPNVGLMAQQAEEYGSHDKTFEIPEDGVANIVDVATGEVLLTENVEAGDIWRMCIVKDAPIRDWVKLAVTRARISGMPVLFWLDPYRPHENELIKKVKTYLKDHDTEGLDIQIMSQVRSMRYTCERLVRGLDTIAATGNILRDYLTDLFPILELGTSAKMLSVVPLMAGGGMYETGAGGSAPKHVKQLVEENHLRWDSLGEFLALGAGFEDIGIKTGNERAKLLGKTLDAAIGKLLDNDKSPSRKTGELDNRGSQFYLAMYWAQELAAQTDDQQLAEHFASLADVLTKNEDVIVRELTEVQGEPVDIGGYYAPDSDMTTAVMRPSKTFNAALEAVQG | – | 2 | 4 | 3

Reference: publication PMC1260013 (BMC Biochemistry, 2005)
